Reference: the Human Domainome abundance scans (Beltran et al. 2025)
± gives the uncertainty stated by the source.

B1: Transcription intermediary factor 1-beta, residues 620 to 671; numbered along this chain, Q13263 (parent)
chain: TLDDSATICRVCQKPGDLVMCNQCEFCFHLDCHLPALQDVPGEEWSCSLCHV

Variants of: B1
Assay: abundance fitness (aPCA) (normalised: wild type 0, dead -1); higher = more abundant; growth selection in yeast, the domain comes from the species named
Conditions: Homo sapiens
For D17W, the abundance fitness was -0.522 ± 0.15.
Variant D17V has an abundance fitness of -0.355 ± 0.11.
D17M showed an abundance fitness of -0.364 ± 0.21.
Work on S5N yielded an abundance fitness of -0.444 ± 0.36.
S5F gave an abundance fitness of -0.227 ± 0.22.
Work on S5C yielded an abundance fitness of -0.157 ± 0.23.
S5P gave an abundance fitness of -0.18 ± 0.14.
S5E gave an abundance fitness of -0.314 ± 0.1.
M20C showed an abundance fitness of -0.225 ± 0.15.
M20E showed an abundance fitness of -0.304 ± 0.12.
With L18G the abundance fitness was -0.642 ± 0.12.
Work on L18T yielded an abundance fitness of 0.162 ± 0.15.
L18A showed an abundance fitness of -0.559 ± 0.13.
With L18M the abundance fitness was -0.599 ± 0.25.
Variant D3F has an abundance fitness of 0.053 ± 0.12.
D3K showed an abundance fitness of 0.027 ± 0.2.
D3Q gave an abundance fitness of -0.603 ± 0.18.
With D3I the abundance fitness was -0.292 ± 0.2.
With D3W the abundance fitness was -0.302 ± 0.12.
With D3M the abundance fitness was -0.529 ± 0.16.
In the case of Q23C, the abundance fitness is reported as -0.043 ± 0.13.
Q23N gave an abundance fitness of -0.014 ± 0.21.
Q23V showed an abundance fitness of -0.214 ± 0.1.
With T1E the abundance fitness was -0.11 ± 0.45.
With T1S the abundance fitness was -0.096 ± 0.17.
W45T gave an abundance fitness of -0.54 ± 0.16.
N22G showed an abundance fitness of -0.27 ± 0.098.
Work on N22K yielded an abundance fitness of 0.05 ± 0.17.
N22T showed an abundance fitness of -0.182 ± 0.13.
Variant N22M has an abundance fitness of -0.337 ± 0.16.
Work on N22Q yielded an abundance fitness of -0.116 ± 0.18.
Variant N22A has an abundance fitness of -0.232 ± 0.11.
For S46E, the abundance fitness was 0.111 ± 0.082.
P41H gave an abundance fitness of -0.513 ± 0.18.
For P41M, the abundance fitness was -0.303 ± 0.16.
Variant C21I has an abundance fitness of -0.807 ± 0.29.
With C21G the abundance fitness was -0.871 ± 0.11.
For C21F, the abundance fitness was -0.962 ± 0.26.
For C21T, the abundance fitness was -0.95 ± 0.27.
Work on C21E yielded an abundance fitness of -0.434 ± 0.16.
L49P gave an abundance fitness of 0.1 ± 0.098.
For L49E, the abundance fitness was 0.389 ± 0.092.
Variant L49N has an abundance fitness of 0.46 ± 0.13.
Work on L49R yielded an abundance fitness of 0.219 ± 0.075.
L49S showed an abundance fitness of 0.303 ± 0.08.
Work on L49T yielded an abundance fitness of 0.301 ± 0.086.
Work on L49V yielded an abundance fitness of -0.09 ± 0.082.
In the case of R10Q, the abundance fitness is reported as -0.296 ± 0.13.
Work on R10H yielded an abundance fitness of 0.136 ± 0.2.
Work on R10Y yielded an abundance fitness of -0.257 ± 0.22.
Variant F26P has an abundance fitness of -0.993 ± 0.24.
Work on F26A yielded an abundance fitness of -0.063 ± 0.11.
F26C showed an abundance fitness of -0.029 ± 0.24.
For F26N, the abundance fitness was -0.122 ± 0.21.
F26L gave an abundance fitness of -0.328 ± 0.12.
C24A gave an abundance fitness of -0.666 ± 0.14.
For C24W, the abundance fitness was -1.04 ± 0.19.
In the case of C24F, the abundance fitness is reported as -0.965 ± 0.22.
Work on H29K yielded an abundance fitness of -0.807 ± 0.28.
For H29V, the abundance fitness was -0.952 ± 0.15.
Variant H29T has an abundance fitness of -0.637 ± 0.17.
Work on H29Y yielded an abundance fitness of -0.921 ± 0.26.
For V11K, the abundance fitness was -0.162 ± 0.11.
K14N gave an abundance fitness of -0.408 ± 0.25.
K14F showed an abundance fitness of -0.424 ± 0.3.
With D31V the abundance fitness was -0.254 ± 0.093.
For D31F, the abundance fitness was -0.558 ± 0.16.
Variant D31M has an abundance fitness of -0.365 ± 0.17.
D31C showed an abundance fitness of -0.709 ± 0.2.
Variant D31G has an abundance fitness of -0.004 ± 0.1.
Variant A6Q has an abundance fitness of -0.261 ± 0.13.
For D39I, the abundance fitness was -0.121 ± 0.16.
With D39N the abundance fitness was -0.551 ± 0.27.
Variant D39E has an abundance fitness of 0.287 ± 0.16.
Work on D39G yielded an abundance fitness of -0.235 ± 0.098.
For D39Y, the abundance fitness was -0.206 ± 0.17.
C50D gave an abundance fitness of -0.183 ± 0.17.
Work on D4H yielded an abundance fitness of -0.035 ± 0.26.
D4R showed an abundance fitness of 0.015 ± 0.072.
D4V gave an abundance fitness of 0.148 ± 0.093.
For A36L, the abundance fitness was -0.173 ± 0.11.
A36H showed an abundance fitness of -0.168 ± 0.19.
With A36R the abundance fitness was 0.058 ± 0.11.
In the case of A36N, the abundance fitness is reported as -0.384 ± 0.31.
L2S gave an abundance fitness of -0.004 ± 0.14.
With L2R the abundance fitness was -0.252 ± 0.12.
With L2Q the abundance fitness was 0.016 ± 0.14.
With L34H the abundance fitness was 0.157 ± 0.17.
Variant L34A has an abundance fitness of 0.164 ± 0.13.
Variant L34K has an abundance fitness of 0.13 ± 0.15.
L34W gave an abundance fitness of -0.328 ± 0.11.
In the case of H51G, the abundance fitness is reported as -0.302 ± 0.096.
H51I gave an abundance fitness of -0.264 ± 0.18.
Work on H51R yielded an abundance fitness of 0.081 ± 0.11.
I8C gave an abundance fitness of 0.083 ± 0.12.
I8F gave an abundance fitness of 0.087 ± 0.22.
For I8N, the abundance fitness was -0.045 ± 0.17.
I8E gave an abundance fitness of -0.065 ± 0.11.
For I8M, the abundance fitness was 0.056 ± 0.11.
Work on H33C yielded an abundance fitness of 0.217 ± 0.14.
For H33R, the abundance fitness was -0.109 ± 0.095.
H33N gave an abundance fitness of -0.139 ± 0.17.
With H33W the abundance fitness was -0.444 ± 0.13.
Variant Q38N has an abundance fitness of 0.082 ± 0.2.
Variant Q38W has an abundance fitness of -0.482 ± 0.12.
For T7P, the abundance fitness was -0.204 ± 0.19.
With T7W the abundance fitness was -0.429 ± 0.15.
In the case of T7E, the abundance fitness is reported as 0.004 ± 0.13.
With T7H the abundance fitness was -0.138 ± 0.14.
In the case of C47S, the abundance fitness is reported as -0.343 ± 0.083.
Work on C47K yielded an abundance fitness of -0.466 ± 0.11.
Variant C47N has an abundance fitness of -0.382 ± 0.12.
Work on C47M yielded an abundance fitness of -0.794 ± 0.12.
For V19D, the abundance fitness was 0.025 ± 0.33.
V19R gave an abundance fitness of -0.364 ± 0.11.
Work on P15C yielded an abundance fitness of -0.646 ± 0.15.
Work on P15G yielded an abundance fitness of -0.126 ± 0.09.
With E25H the abundance fitness was -0.578 ± 0.4.
Variant E25N has an abundance fitness of -0.822 ± 0.39.
With C9Y the abundance fitness was -1 ± 0.21.
C9S gave an abundance fitness of -0.848 ± 0.14.
For C9N, the abundance fitness was -0.469 ± 0.23.
In the case of C32D, the abundance fitness is reported as -0.683 ± 0.18.
In the case of C32L, the abundance fitness is reported as -0.925 ± 0.12.
Work on C32E yielded an abundance fitness of -0.871 ± 0.24.
For C32R, the abundance fitness was -0.704 ± 0.11.
L37T gave an abundance fitness of 0.035 ± 0.14.
With L37C the abundance fitness was -0.021 ± 0.12.
In the case of L37N, the abundance fitness is reported as -0.334 ± 0.35.
G42Y showed an abundance fitness of -0.421 ± 0.21.
Variant G16N has an abundance fitness of 0.137 ± 0.26.
For G16M, the abundance fitness was -0.553 ± 0.2.
G16S gave an abundance fitness of -0.091 ± 0.14.
Work on Q13K yielded an abundance fitness of -0.032 ± 0.13.
Variant Q13I has an abundance fitness of -0.265 ± 0.16.
With Q13F the abundance fitness was 0.042 ± 0.12.
For Q13H, the abundance fitness was 0.062 ± 0.15.
With Q13R the abundance fitness was -0.025 ± 0.079.
Work on V52S yielded an abundance fitness of 0.075 ± 0.27.
In the case of V52T, the abundance fitness is reported as -0.11 ± 0.21.
Variant V52R has an abundance fitness of 0.137 ± 0.15.
In the case of V52A, the abundance fitness is reported as 0.197 ± 0.14.
With S48D the abundance fitness was -0.242 ± 0.17.
S48E gave an abundance fitness of -0.014 ± 0.12.
Variant S48I has an abundance fitness of -0.798 ± 0.2.
With S48V the abundance fitness was -0.508 ± 0.085.
Variant F28E has an abundance fitness of -0.321 ± 0.14.
For F28A, the abundance fitness was -0.098 ± 0.13.
Work on F28W yielded an abundance fitness of 0.093 ± 0.11.
With F28H the abundance fitness was -0.346 ± 0.35.
With P35S the abundance fitness was -0.128 ± 0.1.
Work on P35H yielded an abundance fitness of -0.431 ± 0.23.
P35M showed an abundance fitness of -0.291 ± 0.15.
In the case of P35G, the abundance fitness is reported as -0.244 ± 0.096.
Variant P35T has an abundance fitness of -0.552 ± 0.16.
With E43V the abundance fitness was -0.165 ± 0.086.
E44L gave an abundance fitness of -0.253 ± 0.087.
E44C gave an abundance fitness of 0.058 ± 0.15.
For E44T, the abundance fitness was -0.164 ± 0.14.
Variant V40G has an abundance fitness of -0.301 ± 0.1.
Work on V40F yielded an abundance fitness of 0.01 ± 0.12.
With V40R the abundance fitness was 0.166 ± 0.098.
In the case of V40N, the abundance fitness is reported as -0.218 ± 0.2.
Variant L30R has an abundance fitness of -0.02 ± 0.098.
In the case of L30D, the abundance fitness is reported as -0.755 ± 0.2.
Variant L30W has an abundance fitness of -0.271 ± 0.12.
For L30E, the abundance fitness was -0.196 ± 0.17.
